# Results from US20250145684A1 (IMMATICS BIOTECHNOLOGIES, published 2025).
# Target: T1, HLA-B*08:01 (human)
# T1 construct: MHC monomer first loaded with a UV-sensitive peptide that is cleaved by UV light and exchanged for the test peptide
# Assay: UV peptide exchange ELISA
# Excerpt: Candidate peptides for T cell based therapies according to the present invention were further tested for their MHC binding capacity (affinity). The individual peptide-MHC complexes were produced by UV-ligand exchange, where a UV-sensitive peptide is cleaved upon UV-irradiation and exchanged with the peptide of interest as analyzed. Only peptide candidates that can effectively bind and stabilize the peptide-receptive MHC molecules prevent dissociation of the MHC complexes. To determine the yield of the exchange reaction, an ELISA was performed based on the detection of the light chain (β2m) of stabilized MHC complexes. The assay was performed as generally described in Rodenko et al. (Rodenko et al., 2006).
# 96 well MAXISorp plates (NUNC) were coated over night with 2 ug/ml streptavidin in PBS at room temperature, washed 4× and blocked for 1 h at 37° C. in 2% BSA containing blocking buffer. Refolded HLA-A*02:01/MLA-001 monomers served as standards, covering the range of 15-500 ng/ml. Peptide-MHC monomers of the UV-exchange reaction were diluted 100-fold in blocking buffer. Samples were incubated for 1 h at 37° C., washed four times, incubated with 2 ug/ml HRP conjugated anti-β2m for 1 h at 37° C., washed again and detected with TMB solution that is stopped with […]. Absorption was measured at 450 nm. Candidate peptides that show a high exchange yield (preferably higher than 50%, most preferred higher than 75%) are generally preferred for a generation and production of antibodies or fragments thereof, and/or T cell receptors or fragments thereof, as they show sufficient avidity to the MHC molecules and prevent dissociation of the MHC complexes.
row,Binder,peptide exchange yield
1,DADLREQAL [DADLREQAL (SEQ ID NO: 143)],20 to 50%
2,FNKLVTEL [FNKLVTEL (SEQ ID NO: 152)],20 to 50%
3,DAMTKHTL [DAMTKHTL (SEQ ID NO: 110)],50 to 75%
4,HAMDGASHL [HAMDGASHL (SEQ ID NO: 147)],20 to 50%
5,ALKLKVAEL [ALKLKVAEL (SEQ ID NO: 1)],20 to 50%
6,IANLRVKNI [IANLRVKNI (SEQ ID NO: 103)],50 to 75%
7,HFHNRHVF [HFHNRHVF (SEQ ID NO: 128)],50 to 75%
8,HRILRLPAL [HRILRLPAL (SEQ ID NO: 129)],50 to 75%
9,ILKEQSSSSF [ILKEQSSSSF (SEQ ID NO: 156)],20 to 50%
10,DRHLTNRVL [DRHLTNRVL (SEQ ID NO: 151)],20 to 50%
11,EPVIRTVSI [EPVIRTVSI (SEQ ID NO: 127)],50 to 75%
12,IAVDKPITL [IAVDKPITL (SEQ ID NO: 140)],20 to 50%
13,FAFGEPREL [FAFGEPREL (SEQ ID NO: 104)],20 to 50%
14,DQRSRATL [DQRSRATL (SEQ ID NO: 134)],20 to 50%
15,IEQIRAVL [IEQIRAVL (SEQ ID NO: 144)],20 to 50%
16,EYLETKRLAF [EYLETKRLAF (SEQ ID NO: 135)],10 to 20%
17,GAGLRITAPL [GAGLRITAPL (SEQ ID NO: 111)],20 to 50%
18,DFYLRSSAF [DFYLRSSAF (SEQ ID NO: 12)],50 to 75%

row,Binder,peptide exchange yield
1,DLRNKIIA [DLRNKIIA (SEQ ID NO: 159)],20 to 50%
2,FQRVSSVSF [FQRVSSVSF (SEQ ID NO: 119)],50 to 75%
3,FPLVTPLL [FPLVTPLL (SEQ ID NO: 125)],50 to 75%
4,FTQNPRVQL [FTQNPRVQL (SEQ ID NO: 116)],20 to 50%
5,HAIPHYVTM [HAIPHYVTM (SEQ ID NO: 153)],20 to 50%
6,AQRSEMVTL [AQRSEMVTL (SEQ ID NO: 120)],20 to 50%
7,FQTAHFYL [FQTAHFYL (SEQ ID NO: 146)],50 to 75%
8,DIVPPFSAF [DIVPPFSAF (SEQ ID NO: 161)],20 to 50%
9,HLHLLETSI [HLHLLETSI (SEQ ID NO: 106)],20 to 50%
10,DVNPVSLQL [DVNPVSLQL (SEQ ID NO: 148)],20 to 50%
11,EPFTRPVL [EPFTRPVL (SEQ ID NO: 13)],20 to 50%
12,AQLKLVAL [AQLKLVAL (SEQ ID NO: 141)],20 to 50%
13,DVIIKGNGL [DVIIKGNGL (SEQ ID NO: 158)],20 to 50%
14,ESSAQPTAL [ESSAQPTAL (SEQ ID NO: 122)],20 to 50%
15,HSWTRTSV [HSWTRTSV (SEQ ID NO: 124)],50 to 75%
16,APLKMLALV [APLKMLALV (SEQ ID NO: 105)],20 to 50%
17,ELILKRCL [ELILKRCL (SEQ ID NO: 14)],50 to 75%

# Further lines, results first:
row,peptide exchange yield,Binder
1,20 to 50%,LPINNTHI [LPINNTHI (SEQ ID NO: 160)]
2,20 to 50%,MSTKTTSI [MSTKTTSI (SEQ ID NO: 131)]
3,50 to 75%,TQHLTVATL [TQHLTVATL (SEQ ID NO: 138)]
4,20 to 50%,IPASHPVLTL [IPASHPVLTL (SEQ ID NO: 109)]
5,50 to 75%,MAFVKHLL [MAFVKHLL (SEQ ID NO: 118)]
6,20 to 50%,VGPNGFKSL [VGPNGFKSL (SEQ ID NO: 117)]
7,50 to 75%,IMKKIRESY [IMKKIRESY (SEQ ID NO: 102)]
8,50 to 75%,KMFYRKDVM [KMFYRKDVM (SEQ ID NO: 136)]
9,20 to 50%,QPYRFPQA [QPYRFPQA (SEQ ID NO: 157)]
10,20 to 50%,YSQLSISL [YSQLSISL (SEQ ID NO: 121)]
11,50 to 75%,YNLIYSMCL [YNLIYSMCL (SEQ ID NO: 142)]
12,20 to 50%,VLKTLQEL [VLKTLQEL (SEQ ID NO: 154)]
13,20 to 50%,VQWKPPAL [VQWKPPAL (SEQ ID NO: 137)]
14,20 to 50%,MRILKRFLAC [MRILKRFLAC (SEQ ID NO: 115)]
15,20 to 50%,YGRIGISLF [YGRIGISLF (SEQ ID NO: 139)]
16,20 to 50%,MIYRKALRL [MIYRKALRL (SEQ ID NO: 145)]
17,20 to 50%,LPKGLKDWQA [LPKGLKDWQA (SEQ ID NO: 107)]

row,peptide exchange yield,Binder
1,50 to 75%,MAPLKMLAL [MAPLKMLAL (SEQ ID NO: 11)]
2,20 to 50%,RSYYHPTNL [RSYYHPTNL (SEQ ID NO: 108)]
3,20 to 50%,LPASFPAVL [LPASFPAVL (SEQ ID NO: 155)]
4,20 to 50%,LLKKIEHA [LLKKIEHA (SEQ ID NO: 15)]
5,20 to 50%,QATPRVRIL [QATPRVRIL (SEQ ID NO: 133)]
6,20 to 50%,TAAEARLSL [TAAEARLSL (SEQ ID NO: 126)]
7,20 to 50%,MEKGLASL [MEKGLASL (SEQ ID NO: 113)]
8,20 to 50%,NALDPLSAL [NALDPLSAL (SEQ ID NO: 112)]
9,20 to 50%,NRKPRTPF [NRKPRTPF (SEQ ID NO: 16)]
10,20 to 50%,PVKPKFYL [PVKPKFYL (SEQ ID NO: 114)]
11,50 to 75%,MGKFKQCF [MGKFKQCF (SEQ ID NO: 10)]
12,20 to 50%,MRSSYIREL [MRSSYIREL (SEQ ID NO: 150)]
13,20 to 50%,SLLPFTLSF [SLLPFTLSF (SEQ ID NO: 123)]
14,50 to 75%,IPIQAHQI [IPIQAHQI (SEQ ID NO: 132)]
15,20 to 50%,LPAPYQHQL [LPAPYQHQL (SEQ ID NO: 130)]
16,20 to 50%,TQKSVQVL [TQKSVQVL (SEQ ID NO: 149)]
